From US12410234B2, “Compositions and methods for retrieving tumor-related antibodies and antigens” (THE TRUSTEES OF THE UNIVERSITY OF PENNSYLVANIA, priority 2018, dated 2025)

Key:
[1] = system: Jurkat cells; experiment: Flow cytometry binding of nanobodies to Jurkat cells; design: species or system human
From the text: (§1) FIGS. 1A-1C are series of images and graphs depicting the steps for generating nanobodies that both differentially bind tumor cells and empower CAR T cells to kill the tumor cells. FIG. 1A: Flow chart of AML specific CAR compatible nanobodies in vivo screening. Llama was immunized with AML cell line THP-1. Nanobody library was generated from the llama PMBC including B cells by molecular cloning. Two rounds of conventional cell-based phage display were applied, which took T-ALL cell line Jurkat or chronic myelogenous leukemia (CML) cell line K-562 as negative absorption, followed by one round of count-selection. The resultant THP-1 specific nanobodies were inserted into a chimeric antigen receptor expressing lenti-vector to generate Nb-CAR library. Human primary T cells were transduced by the Nb-CAR library and injected into THP-1 or K562 borne NSG mice to perform the in vivo selection. Nbs that can adapt T cells to enrich in the tumor were PCR-amplified and sequenced. FIG. 1B: 10 million THP-1 cells or 5 million K562 cells were transplanted into NSG mice subcutaneously, followed by treatment of untransduced (UTD) T cells or Nb-lib-CAR T cells. 2 weeks later, Nbs from tumor infiltrated T cells were isolated and identified by PCR amplification. FIG. 1C: Top 5 frequent Nbs in the THP-1 tumor were listed and tested for their recognition to the THP-1 cells, Jurkat cells, or K-562 cells.

[2] = system: patient-derived AML cells; experiment: Flow analysis of Nb binding to patient derived AML cells; design: species or system human; details: patient AML2844
Description: FIGS. 5A-5B: Both Nb157 and Nb163 recognized the patient derived AML cells by flow analysis. FIGS. 5C-5D: Both Nb157 and Nb163 CAR T cells specifically killed the patient derived AML cells in vitro in a dose dependent manner. […] In brief, 20 million of Patient derived AML cells were injected into NSG mouse, followed by 3 million of Nb157 CAR T cells or UTD T cells treatment. The survival of mice was monitored. Each group n=10. FIGS. 5F-5I: Patient derived AML in NSG bone marrow and spleen were monitored after Nb157 CAR T cell treatment by staining with anti-human CD45/CD3/CD33, followed by flow cytometry analysis. FIGS. 5J-5K: At the end points of each group of experiment, the mice spleens were harvested and fixed by paraformaldehyde, followed by immunofluorescence staining of the anti-human CD3/CD33 and DAPI (Nuclear).
To further determine whether the Nb157 CAR T cells can also kill the patient-derived AML cells, CD13 expression of the leukemia cells from patient AML2844 was examined. […] Thereafter, the therapeutic effect of the CAR T cells on the mice with the patient-derived AML cells was examined. To this end, the NSG mice were transplanted with the primary AML cells, followed by treatment with either control UTD or Nb157 CAR T cells.

[3] = system: THP-1 cells; experiment: Flow cytometry binding of nanobodies to THP-1 cells; design: species or system human
From the text: as §1, with “FIG. 1B: 10 million THP-1 cells or 5 million K562 cells were transplanted into NSG mice subcutaneously, followed by treatment of untransduced (UTD) T cells or Nb-lib-CAR T cells. 2 weeks later, Nbs from tumor infiltrated T cells were isolated and identified by PCR amplification. FIG. 1C: Top 5 frequent Nbs in the THP-1 tumor were listed and tested for their recognition to the THP-1 cells, Jurkat cells, or K-562 cells.” left out
FIGS. 6A-6H are series of images and graphs depicting that Nb switch-activated CAR T cells eradicate AML in vivo in a controllable manner. […] The engraftment volumes were monitored by measuring the lengths and widths of the tumors. […] The primary leukemia or CAR T cells in the mouse peripheral blood were monitored by staining with CD33 or CD3 fluorescence labeled antibodies.

[4] = biological target: T1, human full length aminopeptidase N (APN, aka CD13) (Homo sapiens, UniProt P15144); experiment: Flow cytometry of nanobody phage on HEK293T cells transfected with membrane protein cDNA; type: binding; details: nanobody-expressing phage
T1 construct: expressed in transfected cells; host or cells: HEK293T
From the text: (§2) FIGS. 4A-4F are series of images and graphs illustrating the identification of CD13 as a target to kill AML cells by CAR T cells. FIG. 4A: Experiment schema: About 3000 cell membrane protein cDNAs were purified and transfected into HEK293T cells separately, followed by flow analysis with the nanobodies expressing phage and FITC-labeled secondary antibody against phage M13 protein. FIG. 4B: Flow analysis of nanobodies binding to the HEK293T cells with CD13 overexpression. FIG. 4C: CD13 cDNA expression confirmed in HEK293T cells by western blot. FIG. 4D: Western blot to confirm the gRNA/CRISPR guided CD13 knockout effect in THP-1 cells. Three independent gRNAs were transduced into THP-1 separately, followed by puromycin selection and single individual clone expansion. FIG. 4E: Flow analysis of Nb157 or Nb163 binding CD13 knockout THP-1 cells. FIG. 4F: Killing assay of Nbs CAR T cells to the THP-1 wild type (wt) or THP-1 cd13-ko.
To identify the protein antigens of the isolated nanobodies, about 3000 human cell membrane protein cDNAs were prepared and transfected into HEK293T cells individually, followed by flow cytometry detection with the nanobody-expressing phage and FITC-labeled secondary antibody against phage M13 protein (FIG. 4A). […] As a confirmation, human CD13 cDNA expression was also shown by western blot (FIG. 4C). CD13 is preferentially expressed in acute myeloid blast cells.

[5] = system: K562 cells; experiment: Flow cytometry binding of nanobodies to K562 cells; design: species or system human
From the text: as §1

[6] = system: CD13 knockout THP-1 cells; experiment: Flow analysis of Nb binding to CD13 knockout THP-1 cells; design: species or system human; details: flow cytometry
From the text: as §2
To knockout CD13 in THP-1 cell line, LentiCRISPRv2.0 vector was applied according to the protocol (Sanjana, N. E. et al, (2014) Nature methods 11, 783-784). sgRNA targeting human CD13 were listed as below, sgCD13-1 […] (SEQ ID NO: 14), sgCD13-2 […] (SEQ ID NO: 15), […]. Plasmids were confirmed by sequencing and packaged into lentivirus, followed by infecting THP-1 cells. […]

[7] = system: other AML cell lines like HL60, NB4, and U937; experiment: Recognition of other AML cell lines by THP-1 specific Nbs; type: binding, human
Description: FIG. 7 is series of a table and graphs depicting the affinity test of VHHs against variant of AML cell lines and patient derived AMLs. The four THP-1 specific Nbs were tested for their recognition to other AML cell lines. + was <0.5 log shift, ++ was <1.0 log shift, +++ was <1.5 log shift, − was no binding.

[8] = system: THP-1 cells; experiment: Killing assay of Nb157-PNE-mediated sCAR system; type: cell-based, human; details: sCAR T to THP-1 2:1, 16 hours
From the text: FIGS. 6A-6H are series of images and graphs depicting that Nb switch-activated CAR T cells eradicate AML in vivo in a controllable manner. FIGS. 6A-6B: Schematic diagram of switchable CAR T system. The Nb157 was expressed and purified by fusing with PNE, a fourteen amino acid peptide, either at N terminal or C terminal of the Nanobody. Primary human T cells were engineered by lentivirus transduction of scFv CAR that recognized PNE specifically. FIG. 6C: Test the affinity of Nb157, Nb157-N-PNE or Nb157-C-PNE against THP-1 cells by flow cytometry analysis. FIG. 6D: Killing assay of Nb157-PNE-mediated sCAR system against THP-1 cells in series of switch concentrations. The ratio of sCAR T to THP-1 was 2:1 and assay was performed after 16 hours incubation. FIG. 6E: 10 million THP-1 cells were transplanted into NSG mice subcutaneously to form the 150 mm^3 of tumors. […] The engraftment volumes were monitored by measuring the lengths and widths of the tumors. […] The primary leukemia or CAR T cells in the mouse peripheral blood were monitored by staining with CD33 or CD3 fluorescence labeled antibodies.
Killing assays were performed as previously described (Cao, L. F. et al. (2010) Cytometry A 77, 534-545). […] Quantification were calculated by either Countbright beads or volume.

[9] = system: CD13-/- THP-1 cell lines; experiment: Killing assay on THP-1 cd13-ko cells; type: cell-based, human; details: THP-1 cd13-ko vs wild type
From the text: as §2
Killing assays were performed as previously described (Cao, L. F. et al. (2010) Cytometry A 77, 534-545). In brief, target cells were labeled by anti-CD33 (BD) for detecting cell number with flow cytometry analysis or labeled by CellTrace Far Red for tracing cell division. Target cells were incubated with effector T cells for 16 hrs at a series of ratios. […] Quantification were calculated by either Countbright beads or volume. […]

[10] = system: BON cells; experiment: Flow cytometry binding of VLV or VLV-DM1 to BON cells; design: species or system human
Description: (§3) Scale bar: […]. […] Scale bar: […].

[11] = system: QGP1 cells; experiment: Flow cytometry binding of VLV or VLV-DM1 to QGP1 cells
Description: as §3

T1 sequence (P15144 whole entry): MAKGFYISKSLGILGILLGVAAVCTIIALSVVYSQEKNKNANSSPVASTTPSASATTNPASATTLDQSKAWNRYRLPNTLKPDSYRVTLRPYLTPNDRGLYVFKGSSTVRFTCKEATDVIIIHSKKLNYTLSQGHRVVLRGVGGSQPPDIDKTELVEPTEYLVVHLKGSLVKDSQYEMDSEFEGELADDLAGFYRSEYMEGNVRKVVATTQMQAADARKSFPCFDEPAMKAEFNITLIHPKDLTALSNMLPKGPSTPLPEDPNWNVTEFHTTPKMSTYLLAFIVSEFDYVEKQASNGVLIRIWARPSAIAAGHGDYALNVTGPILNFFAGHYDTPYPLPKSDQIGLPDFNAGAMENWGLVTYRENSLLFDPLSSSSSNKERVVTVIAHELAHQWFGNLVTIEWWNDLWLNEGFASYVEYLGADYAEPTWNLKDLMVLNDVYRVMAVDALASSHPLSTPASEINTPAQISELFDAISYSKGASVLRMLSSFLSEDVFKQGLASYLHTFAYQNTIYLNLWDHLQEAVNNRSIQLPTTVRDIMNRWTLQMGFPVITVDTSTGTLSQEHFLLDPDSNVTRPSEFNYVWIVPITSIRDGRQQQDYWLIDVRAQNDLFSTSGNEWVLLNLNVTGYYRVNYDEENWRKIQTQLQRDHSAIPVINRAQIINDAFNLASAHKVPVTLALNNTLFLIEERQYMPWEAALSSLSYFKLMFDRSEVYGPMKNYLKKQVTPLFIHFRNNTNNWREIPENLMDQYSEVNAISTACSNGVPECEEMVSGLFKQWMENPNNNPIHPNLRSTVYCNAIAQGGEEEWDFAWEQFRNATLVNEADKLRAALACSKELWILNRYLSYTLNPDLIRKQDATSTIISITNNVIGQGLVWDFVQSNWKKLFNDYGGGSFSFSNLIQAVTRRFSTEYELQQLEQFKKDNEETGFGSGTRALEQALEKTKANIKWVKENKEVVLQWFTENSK

Molecule | binding to Jurkat cells [1] | recognition of patient-derived AML cells [2] | binding to THP-1 cells [3] | binding to cells transfected with human CD13 [4] | binding to K562 cells [5] | binding after CD13 knockout in THP-1 [6] | binding to other AML cell lines [7] | switch-triggered killing of THP-1 cells by sCAR T cells [8] | killing of target cells after CD13 knockout [9] | binding to BON cells [10] | binding to QGP1 cells [11]
Nb157: THP-1 specific llama nanobody binding CD13, SEQ ID NO: 19 (protein, VHH157) VHH: AAQAAQVQLQESGGGLVQPGGSLSLSCTASGFTFSSYSMAWVRQAPGKGPEWVSGIYPSDGKTRYADFVKGRFSISRDNAKNMLYLQMNNLEPEDTALYYCARGITGLGPRGQGTQVTVSSAA | but not Jurkat or K562 cells | detected the CD13 expression on the primary AML cells | specifically bound THP-1 cells | bound the cells transfected with human full length aminopeptidase N | but not Jurkat or K562 cells | CD13 knockout abrogated the binding | also bound other AML cell lines like HL60, NB4, and U937 |  |  |  | 
Nb157-N-PNE: Nb157 with N-terminal PNE; inducible nanobody switch (protein, left off: small tags and cut ends, Nb157 with N-terminal PNE; inducible nanobody switch) AAQAAQVQLQESGGGLVQPGGSLSLSCTASGFTFSSYSMAWVRQAPGKGPEWVSGIYPSDGKTRYADFVKGRFSISRDNAKNMLYLQMNNLEPEDTALYYCARGITGLGPRGQGTQVTVSSAA |  |  |  |  |  |  |  | slightly reduced the cytolysis-inducing activity |  |  | 
Nb163: THP-1 specific llama nanobody binding CD13, SEQ ID NO: 24 (protein, VHH163) VHH: AAQAAQVQLQESGGGLVQPGGSLRLSCVPSGFTFDGYLIGWFRQAPGSERKAVSCISVNGDRTNYADSVKGRFTISRDNAKNTVYLQMNSLRPNDTAIYYCATRRGNRLYNNNCPYFEYGTWGQGTQVTVSSAA | but not Jurkat or K562 cells | detected the CD13 expression on the primary AML cells | specifically bound THP-1 cells | bound the cells transfected with human full length aminopeptidase N | but not Jurkat or K562 cells | CD13 knockout abrogated the binding | also bound other AML cell lines like HL60, NB4, and U937 |  | diminished the killing of Nb163 to the targets significantly, but cannot abrogated the effect completely |  | 
VLV: VHH1 homodimer connected by a linker (protein, left off: small tags and cut ends, VHH1 homodimer connected by a linker) VHH 1: QVQLQESGGGLVQPGGSTRLSCVSSRTFSYYDMGWFRQAPGKEREFVALLSWNGENAEYSDSVMGRFTVSRGNTQNSVNLQMNNLKPEDTGIYYCAVTHGGARSVRSWGQGTQVTVSS VHH 2: QVQLQESGGGLVQPGGSTRLSCVSSRTFSYYDMGWFRQAPGKEREFVALLSWNGENAEYSDSVMGRFTVSRGNTQNSVNLQMNNLKPEDTGIYYCAVTHGGARSVRSWGQGTQVTVSS |  |  |  |  |  |  |  |  |  | bound to BON cells | but not QGP1 cells
